The target of this assay is histone H4 (in the nucleosome) (Xenopus laevis, UniProt P62799). In words: cryo-EM structure.

B1: DDM1-HELLS chimeric protein (DDM1^HELLS) (enzyme)
chain: MVSLRSRKVIPASEMVSDGKTEKDASGDSPTSVLNEEENCEEKSVTVVEEEILLAKNGDSSLISEAMAQEEEQLLKLREDEEKANNAGSAVAPNLNETQFTKLDELLTQTQLYSEFLLEKMEDITINGIESESQKAEPEKTGRGRKRKAASQYNNTKAKRAVAAMISRSKEDGETINSDLTEEETVIKLQNELCPLLTGGQLKSYQLKGVKWLISLWQNGLNGILADQMGLGKTIQTIGFLSHLKGNGLDGPYLVIAPLSTLSNWFNEIARFTPSINAIIYHGDKNQRDELRRKHMPKTVGPKFPIVITSYEVAMNDAKRILRHYPWKYVVIDEGHRLKNHKCKLLRELKHLKMDNKLLLTGTPLQNNLSELWSLLNFILPDIFTSHDEFESWFDFSEKNKNEATKEEEEKRRAQVVSKLHGILRPFILRRMKCDVELSLPRKKEIIMYATMTDHQKKFQEHLVNNTLEAHLGENAIRGIELSPTGRPKRRTRKSINYSKIDDFPNELEKLISQIQPEVDRERAVVEVNIPVEQGWKGKLNNLVIQLRKNCNHPDLLQGQIDGSYLYPPVEEIVGQCGKFRLLERLLVRLFANNHKVLIFSQWTKLLDIMDYYFSEKGFEVCRIDGSVKLDERRRQIKDFSDEKSSCSIFLLSTRAGGLGINLTAADTCILYDSDWNPQMDLQAMDRCHRIGQTKPVHVYRLSTAQSIETRVLKRAYSKLKLEHVVIGQGQFHQERAKSSTPLEEEDILALLKEDETAEDKLIQTDISDADLDRLLDRSDLTITAPGETQAAEAFPVKGPGWEVVLPSSGGMLSSLNS
With B1, the binding result was “binds”.

The record behind these values is paper doi:10.1101/2023.08.09.551721 (bioRxiv, 2023).
